Test results taken from the nanobody polyreactivity screen of Harvey et al. (2022).

Test: yeast display, Sf9 membrane polyspecificity reagent, FACS + sequencing; frameworks hold sequencing errors
How it was run: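 Genes from sorted yeast were amplified by colony PCR, read by MiSeq 2 × 250 sequencing and filtered on CDR length. These cells carried a synthetic nanobody library in Saccharomyces cerevisiae BJ5465 and were sorted by FACS into low and high (top ~1%) gates on anti-HA and streptavidin fluorescence. Polyreactivity is labelled according to the gate of origin.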

Sequence	polyreactivity (PSR sort gate)
QVQLVESGGGLVQAGGSLRLSCAASGFTVTRYAMGWYRQAPGKERELVAAITRSGSSTSYADSVKGRFTISRDNAKNTVSLQINSLKPEDTAVYYCAARLHSPRYRYDYWGQGTQVTVSS	high polyreactivity
QVQLVESGGGLVQAGGSLRLSCAASGSIFGGNAMGWYRQAPGKETELVATITVRGGSTYYADSVKGRFRISRDNAKNSVYLQMNSLKPEDTAVYYCATEEVSRYRYGYWGQGTQVTVSS	low polyreactivity
QVQLVESGGGLVQAGGSLRLSCAASGFTFFEDNAMGWYRQAPGKERELVAAITSGGSTNYADSVKGRFTFSRDNAKNTVYLQMNSLKPEDTAVYYCAKDRVPLKTRFYYFPWGYDYWGQGTQVTVSS	low polyreactivity
QVQLVESGGGLLQAGGSRRLSCAASGRTFYSYGMGWYRRAPGKERELVARNTWSGGTYYADSVKGRFTISRDNAKNTVYLQMNSLKPEDTAVYYCAKRSYYWEYYYWGQGTQVTVSA	high polyreactivity
QDQLVESGGGLVQAAGSLRLSCAASGSTFLGNALGWYRQARGKERQLVAAISGRGGSTYYADSVKGRFTISRDNAKNTVYVQMNSLKPEDTAVYYCNAVGRRVRTWHDYDYWGKGTQVTVSS	high polyreactivity
QDQLVESGGGLLQAGGSLRLSCAASGRTFRYYAMGWYRQAPGKERELVAAISWSGSSTYYADSVKGRFTISRDNAKNTVYLQMNSLKAEDTAVYDCNAKGVRGKYFDYSRVSAYDYWGQGTQVTVSS	low polyreactivity
QVQLVESGGGLVQAGGRLRLSCAASGSIFRWYAMGLYRQAPGKERELVAAITSGGSTYYADSVKGRFTISRDNAKNCVYLQMNSLKPEDTAVYYCNAKTYYPPFGYWGQGTQVTVSS	low polyreactivity
QVQLVESGGGLVQAGGSLRLSCAASGRIFQYNVIGWYRQARWKERELVAAISSGGNTYYADSVKGRFTISRDNAKNTVYLQMNSLKPEDTSFYYCAADHYVPWPNYDYDYWGQGTQETVSS	low polyreactivity
QGQLVESGGGLVQAGGSLRLSCAASGGIFGNYAMGGYRQAPGKERELVAVIDSSDGSTHYADSVKGRFSISRDNAKTTVYLQINSLKAEDTAVYYCATLGFWNYWTFDYWGQGTQVTVSS	low polyreactivity
QVQLVESGGGLVQAGGSLRLSCAASGRTFRYYTMGWYRQAPGKEREFVAAISSTGGTYYADSVKGRFTISRDNAKNTVYLLMNSLNPEDTAVYYCAATFIQVVVNVQLYDYDYWGQGTQVTVSS	low polyreactivity
QVQLVESGGGLVQAGGSLRLSCAASGRTFYWNAMGWYRQAPGKEREFVAAITNTAGSTYYADSVKGRFTISRDNAKNTVYLQMNSLNPEDTAVYYCAKSGNGGYRTYLRDYWGQGTQVTVSS	low polyreactivity
QVQLVESGGGLVQAGGSLRLSCAASVFILRYYAMGWYRQAPGKERELVAAISYTAGSTYYADSVKGRFTISRDNAKNTVYLQMNSLKPKDTAVYYCAASYTPWRYVPRDYWGQGTQVTVSS	high polyreactivity
QVQLVESGGGLVQAGGSLRLSSAASGSIFTYYAMGWYRQAPGKERELLASISRHGGSTYYADSVKGRFTISRDNAKNTVYLQMNSLKPEDTAVYYCNARGWHTKVVSPRYYWGQGTQVTVSS	high polyreactivity
QVQLVESGVGLVQAGGSLRLSCAASGSIFYSNAMGRYRQAPGKERELVASIRGSGVSTYYADSVKGRFTISRDNAKNTVYLQMNRLKPEDTAVYYCAARYGRSYFGYYYWGQGTQVTVSS	high polyreactivity
QVQLVESAGGLVQAGVSLRLSCAASGFTFGWYAMGWYRQAPGKERELVATISWSGSSTYYADSVKGRFTISRDNAKNTVYVQMNSLKPDDTAVYYCNAVYGRFVVLRYDYWGQGTQVTVSS	high polyreactivity
QVQLVESGGGLVQAGGSLRLSCAASVSIFQKNARGWYRQAPGKERELVAVITRGGTSTYYADSVKGRFTISRDNAKNTVYLQMNSLKPEDTAVYDCAADSGFDTAPYDFWGQGTQVTVSS	low polyreactivity
QVQLVESGGGLVQAGGSLRLSCAASGRIFRAYTMGWYRQAPGKERELVAAISGSGTSTYYADSVKGRFTISRDNAKNTVYLQMNSLKPEDTAVYYCAAPSLSGYGYEYWGQGTQVTVSS	high polyreactivity
